Data published in paper PMC6117287.

Experiments:
[1] = target: Isatin hydrolase A from Labrenzia aggregata (Labrenzia aggregata IAM12614); test: crystal structure; LaIHA at 15-20 mg/mL with 1 mM MnCl2, crystallised at 22 °C; structures with benzyl benzoate (1.50 Å) and isatinate (1.79 Å); dimer in the asymmetric unit
purified protein = substrate: O=C1Nc2ccccc2C1=O; test: purified protein; assay type: biochemical, Roseibium aggregatum; conditions: Mn2+ dependent enzyme; one-site Michaelis-Menten fit

| stoichiometry N [1] | Molecule | Km (purified protein) |
| --- | --- | --- |
| 2 | Isatin hydrolase A from Labrenzia aggregata (enzyme) | – |
| – | LaIHA (Roseibium aggregatum IAM 12614) (protein) MSSLNQLVSGLASGAVRIVDLTHTLDPDFPVIVLPPEFGQCARFRMEEISAYDHRGPAWKWHNISMSEHTGTHFDAPSHWISGKDVPNGSVDEIPAEAFVGPVVVIDCSKGAAENDDFELTPEIIAGWESEHGRIPEDAWVLMRTDWSKRRGADYLNMRADGPHSPGPTPEAIRFLIEERNIRGFGTETVGTDAGQGAHYVPPYPAHYLLHGAGKYGLQCLANLDQLPATGAVLIAAPLKIKNGTGSPLRVLAMVTE | 16 µM |
